Reference: patent US20050182003A1, “Drugs to be used in gene therapy for recessively transmitted genetic disease” (priority 2002, published 2005)

Tested on: mouse
Assay: suppression of immune response by oral tolerance
Assay type: in vivo
Settings: administered orally to a mouse
From the text: As for a method for suppressing antigen-specific immune response, various methods have been already reported. […] Therefore, they tried to suppress the anti-Dsg3 antibody generation in Dsg3^+/+ graft strain by inhibiting the binding of CD40 and CD40L, which are playing an important role to the establishment of immune response. CD40L is a type II cell membrane-penetrating protein, expressed transiently in activated T cells having received antigen stimulation and CD40, its receptor, is expressed in B cells, dendritic cells, monocyte/macrophage, endothelial cells and the like. The CD40-CD40L binding not only plays an important role in cellular immunity by promoting cytokine production and the like, but it is clarified to be quite important for proliferation of B cells, antibody production and the like. Thus, attempts have been made to suppress immune response in autoimmune diseases, organ transplantation and the like by using anti-CD40L monoclonal antibody inhibiting this binding. As mentioned above, in Dsg3^+/+ graft strain, anti-Dsg3 IgG antibody generation, which is detected in serum by ELISA method, is observed approximately two weeks after skin graft, in all mice that underwent skin graft.

B1: Dsg3 protein: Dsg3 protein prepared with the use of E. Coli expression vector, administered orally (protein, UniProt P32926 50-999, looked up)
Desmoglein-3: EWVKFAKPCREGEDNSKRNPIAKITSDYQATQKITYRISGVGIDQPPFGIFVVDKNTGDINITAIVDREETPSFLITCRALNAQGLDVEKPLILTVKILDINDNPPVFSQQIFMGEIEENSASNSLVMILNATDADEPNHLNSKIAFKIVSQEPAGTPMFLLSRNTGEVRTLTNSLDREQASSYRLVVSGADKDGEGLSTQCECNIKVKDVNDNFPMFRDSQYSARIEENILSSELLRFQVTDLDEEYTDNWLAVYFFTSGNEGNWFEIQTDPRTNEGILKVVKALDYEQLQSVKLSIAVKNKAEFHQSVISRYRVQSTPVTIQVINVREGIAFRPASKTFTVQKGISSKKLVDYILGTYQAIDEDTNKAASNVKYVMGRNDGGYLMIDSKTAEIKFVKNMNRDSTFIVNKTITAEVLAIDEYTGKTSTGTVYVRVPDFNDNCPTAVLEKDAVCSSSPSVVVSARTLNNRYTGPYTFALEDQPVKLPAVWSITTLNATSALLRAQEQIPPGVYHISLVLTDSQNNRCEMPRSLTLEVCQCDNRGICGTSYPTTSPGTRYGRPHSGRLGPAAIGLLLLGLLLLLLAPLLLLTCDCGAGSTGGVTGGFIPVPDGSEGTIHQWGIEGAHPEDKEITNICVPPVTANGADFMESSEVCTNTYARGTAVEGTSGMEMTTKLGAATESGGAAGFATGTVSGAASGFGAATGVGICSSGQSGTMRTRHSTGGTNKDYADGAISMNFLDSYFSQKAFACAEEDDGQEANDCLLIYDNEGADATGSPVGSVGCCSFIADDLDDSFLDSLGPKFKKLAEISLGVDGEGKEVQPPSKDSGYGIESCGHPIEVQQTGFVKCQTLSGSQGASALSTSGSVQPAVSIPDPLQHGNYLVTETYSASGSLVQPSTAGFDPLLTQNVIVTERVICPISSVPGNLAGPTQLRGSHTMLCTEDPCSRLI
For B1, the “suppression of immune response by oral tolerance” value was “failed to obtain successful results”.
